Assay [1] has as its target AgaBb1191 (α-galactosidase from Bifidobacterium bifidum JCM 1254, residues 23-1191, without the N-terminal T7-tag) (Bifidobacterium bifidum JCM 1254). Briefly: SEC.
In assay [2] the target is AgaBb1180 (Bifidobacterium bifidum JCM 1254). The assay can be described thus: SEC. In general terms: Size exclusion chromatography separates by hydrodynamic size, large species first.

Broadly, the stoichiometry N is the number of molecules, sites or subunits per partner or assembly.

In turn, “AgaBb1191 (α-galactosidase from Bifidobacterium bifidum JCM 1254, residues 23-1191, without the N-terminal T7-tag) (domain or fragment)” registered a stoichiometry N in assay [1] of 2.
The substance AgaBb1180 (domain or fragment) gave a stoichiometry N in assay [2] of 2.

For the origin of these results see paper PMC11368712.
